Results taken from patent US20250269018A1, “COMBINED CANCER THERAPY WITH AN EPITHELIAL CELL ADHESION MOLECULE (EPCAM) INHIBITOR AND A HEPATOCYTE GROWTH FACTOR RECEPTOR (HGFR) INHIBITOR” (ACADEMIA SINICA, priority 2021, published 2025).

B1: EpAb2-6: anti-EpCAM neutralizing monoclonal antibody targeting EpEX; VH SEQ ID NO: 15, VL SEQ ID NO: 16 (antibody, listed as Homo sapiens, V domains shown)
VH: VKLQESGPELKKPGETVKISCKASGYTFTDYSMHWVKQAPGKGLKWMGWINTETGEPTYADDFKGRFAFSLETSASTAYLQINNLKNEDTATYFCARTAVYWGQGTTVTVSS
VL: DIQMTQSPSSLSASLGERVSLTCRASQEISVSLSWLQQEPDGTIKRLIYATSTLDSGVPKRFSGSRSGSDYSLTISSLESEDFVDYYCLQYASYPWTFGGGTKLEIKRADAAPTVS

What was measured:
[1] = system: HGFR signaling; test: Western blotting of phosphorylated ERK and AKT in HT29 cells; assay type: cell-based, human; conditions: SU11274 with EpEX-His, FIG. 2C
Experimental: (§1) FIGS. 2A to 2K. EpEX promotes tumor progression via HGFR signaling. (FIG. 2A) WT or EpCAM knockout (KO) HCT116 and HT29 cells treated with HGF (0.5 nM) for 15 min. The phosphorylation of HGFR, AKT, and ERK was examined by Western blotting. (FIG. 2B) WT or KO HCT116 and HT29 cells were treated with HGF (0.5 nM) with 2% FBS for the indicated times. Cell growth was examined by the WST-1 assay. (FIG. 2C) Starved HCT116 cells were treated with HGFR inhibitor SU11274 (SU, 10 μM) for 1 h then treated with 50 nM of EpEX-His for 15 min. The levels of phosphorylated HGFR, EGFR, AKT, and ERK were examined by Western blotting. HCT116 and HT29 cells were treated with 50 nM EpEX and SU (10 μM). […]
Whole cell extracts were prepared with RIPA buffer (50 mM Tris-HCl pH7.4, 1% NP-40, 0.5% Sodium deoxycholate, 0.1% SDS, 150 mM NaCl, 2 mM EDTA, 50 mM NaF). Protein concentrations of the cell lysates were determined by the Bradford assay. […]
Appropriate horseradish peroxidase-associated secondary antibodies (Millipore) were applied and the membranes were incubated at room temperature (RT) for 1 h. The protein bands were subsequently visualized with chemiluminescence reagents (Millipore) and detected on a BioSpectrum 600 Imaging system (UVP). The protein level was quantified from band intensity using Gel-Pro analyzer 3.1 (Media Cybernetics).

[2] = system: HT29 cells; test: Cell growth by WST-1 assay, HT29; assay type: cell-based, human; conditions: 50 nM EpEX and SU 10 μM, FIG. 2D
Experimental: as §1, with “μM). (FIG. 2D) Cell growth was examined by WST-1 assay after treatment for indicated time. (FIG. 2E) HCT116 cells were treated with shLuc or HGFR shRNA then treated with 50 nM of EpEX-His for 15 min. The levels of phosphorylated HGFR, EGFR, ERK, and AKT were examined in HGFR knockdown HCT116 cells by Western blotting. (FIG. 2F) The levels of phosphorylated ADAM17 and presenilin 2 were examined by Western blotting.” for “μM).”
(§2) Cell viability was assayed by measuring mitochondrial dehydrogenase activity with the WST-1 (4-[3-(4-lodophenyl)-2-(4-nitrophenyl)-2H-5-tetrazolio]-1, 3-benzene disulfonate) assay. […] Following the incubation, absorbance of each well was detected at 450 nm using a spectrophotometric microplate reader.

[3] = system: HCT116 cells; test: Cell growth by WST-1 assay, HCT116; assay type: cell-based, human; conditions: 50 nM EpEX and SU 10 μM, FIG. 2D
Experimental: as §1, with “μM). (FIG. 2D) Cell growth was examined by WST-1 assay after treatment for indicated time. (FIG. 2E) HCT116 cells were treated with shLuc or HGFR shRNA then treated with 50 nM of EpEX-His for 15 min. The levels of phosphorylated HGFR, EGFR, ERK, and AKT were examined in HGFR knockdown HCT116 cells by Western blotting. (FIG. 2F) The levels of phosphorylated ADAM17 and presenilin 2 were examined by Western blotting.” for “μM).”
as §2

[4] = system: HCT116 or HT29; test: Metastatic and orthotopic animal models of colon cancer, overall statements
Experimental: Colon cancer HCT116 or HT29 (5×10^6 cells/mouse) in PBS were injected into 4-6-week-old female NOD/SCID mice through the tail vein. Mice were then randomly assigned to different treatment groups by body weight. After 3 days, antibodies were administered through tail vein injection twice a week for four consecutive weeks. Crizotinib was administered daily by oral gavage for 5 days per week (treatment for four weeks). For the therapeutic study, tumor-bearing mice were treated with isotype control IgG1 (15 mg/kg), crizotinib (20 mg/kg), EpAb2-6 (15 mg/kg), or crizotinib (20 mg/kg) combined with EpAb2-6 (15 mg/kg). Mouse survival rate were measured.
Orthotopic tumor models were created as previously reported (Chen et al., 2020). Briefly, NSCID mice were used for orthotopic implantation of HCT116 cells previously infected with Lenti-luc virus (lentivirus containing luciferase gene). The mice were anesthetized by i.p. injection ofAvertin, 2,2,2-Tribromo-ethanol (Sigma-Aldrich) at a dose of 250 mg/kg. Tumor development was monitored by bioluminescence imaging. For the therapeutic study, tumor-bearing mice were treated with isotype control IgG1 (15 mg/kg), crizotinib (20 mg/kg), EpAb2-6 (15 mg/kg), or crizotinib (20 mg/kg) combined with EpAb2-6 (15 mg/kg). Tumor progression was monitored by quantification of bioluminescence. Mouse survival was also monitored.

[5] = system: GSK3β, active β-catenin and Snail; test: Western blotting of GSK3β, active β-catenin, Snail and EMT proteins in HCT116 cells; assay type: cell-based, human
[6] = target: T1, EpCAM (Homo sapiens, UniProt P16422); test: Antibody binding to EpCAM wild-type and mutants expressed in HEK293T cells (immunofluorescence, flow cytometry, cellular ELISA); conditions: conclusion from deletion and point mutants
T1 sequence (P16422 24-314): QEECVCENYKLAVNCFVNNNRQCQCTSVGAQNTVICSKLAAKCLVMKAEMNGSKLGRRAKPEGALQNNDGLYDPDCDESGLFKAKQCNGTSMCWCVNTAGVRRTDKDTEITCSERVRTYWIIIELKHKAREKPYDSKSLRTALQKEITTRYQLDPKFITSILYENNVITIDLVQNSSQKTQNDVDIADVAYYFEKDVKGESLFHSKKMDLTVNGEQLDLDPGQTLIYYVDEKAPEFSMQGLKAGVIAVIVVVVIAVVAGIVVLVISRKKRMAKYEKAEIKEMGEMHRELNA
Experimental: FIGS. 8A to 8G. EpAb2-6 binds to both EGF-like domain I and II of EpCAM. HEK293T cells were transfected with full length or EGF like-domain deletion mutant EpCAM-V5. Antibody binding was assessed by (FIG. 8A) Western blotting, (FIG. 8B) flow cytometry, and (FIG. 8C) immunofluorescence. (FIG. 8D) EpCAM mutants were constructed with amino acid substitutions in the EGF-I (Y32A) and EGF-II (L94A, Y95A, or D96A) domains. EpCAM wild-type and mutant proteins were expressed in HEK293T cells. Binding of MT201, EpAb2-6 and EpAb23-1 to EpCAM wild-type and mutants were evaluated by (FIG. 8E) immunofluorescence, (FIG. 8F) flow cytometry, and (FIG. 8G) cellular ELISA.
A previous study identified the binding epitope of EpAb2-6 antibody as the LYD motif in EpCAM, which corresponds to amino acid residues 94-96; in particular, residue 95 (Y95) plays a major role in EpAb2-6 binding (Liao et al., 2015). […] Therefore, we wanted to determine whether the antibody binds to EpCAM at both EGF-like domains of EpEX (FIG. 8A, FIG. 8B, FIG. 8C). To confirm that EpAb2-6 recognizes the LYD motif in EpCAM, we constructed cDNA sequences encoding the first (aa 27-59; EGF-I domain) and second (aa 66-135; EGF-II/TY domain) EGF-like repeats of EpCAM. PCR-based site-directed mutagenesis was then used to introduce mutations into each domain (FIG. 8D). The reactivity of EpAb2-6 antibody toward these EpCAM mutants was evaluated by immunofluorescence (FIG. 8E), flow cytometry (FIG. 8F), and cellular ELISA (FIG. 8G).

| Molecule | EpEX-mediated ERK and AKT phosphorylation [1] | EpEX-induced increases in cell viability and proliferation [2] | EpEX-induced increases in cell viability and proliferation [3] | survival [4] | tumor progression [4] | Active β-catenin and Snail steady-state protein levels ([5]; 10 μM MG132 and EpAb2-6 for 6 h, FIG. 6I) | activating phosphorylation of GSK3β at Y216 (active GSK3β) ([5]; 24 h, FIG. 6H) | suppressive phosphorylation of GSK3β at S9 (inactive GSK3β) ([5]; 24 h, FIG. 6H) | levels of E-cadherin ([5]; 24 h, vs control IgG, FIG. 6G) | levels of Snail and the active β-catenin ([5]; 24 h, vs control IgG, FIG. 6G) | EpEX domains and residues bound [6] |
| --- | --- | --- | --- | --- | --- | --- | --- | --- | --- | --- | --- |
| Cc1[nH]c(C=C2C(=O)Nc3ccc(S(=O)(=O)N(C)c4cccc(Cl)c4)cc32)c(C)c1C(=O)N1CCN(C)CC1 (stereo in doubt) [SU11274, (3Z)-N-(3-Chlorophenyl)-3-({3,5-dimethyl-4-[(4-methylpiperazin-1-yl)carbonyl]-1H-pyrrol-2-yl}methylene)-N-methyl-2-oxo-2,3-dihydro-1H-indole-5-sulfonamide] | attenuate EpEX-mediated ERK and AKT phosphorylation | abolished the EpEX-induced increases in cell viability and proliferation | abolished the EpEX-induced increases in cell viability and proliferation |  |  |  |  |  |  |  |  |
| B1 |  |  |  | higher median survival than the control IgG- or crizotinib-treated groups | much slower tumor progression | reduced | increased activating phosphorylation of the protein at Y216 | decreased suppressive phosphorylation of GSK3β at S9 | increased the levels of E-cadherin | decreasing Snail and the active β-catenin | binds to the EGF-I and EGF-II domains of EpEX, respectively targeting amino acid residues Y32 and Y95 |
